# Laboratory results as given in the DeepSol protein solubility set.
# Experiment: soluble on expression in E. coli; label from the status in PepcDB or PDB records
row,Sequence,soluble on expression in E. coli
1,MVYPIRLYGDPVLRRKARPVEDFSGIKRLAEDMLETMFEAKGVGLAAPQIGLSQRLFVAVEYADEPEGEEERPLRELVRRVYVVANPVITYREGLVEGTEGCLSLPGLYSEEVPRAERIRVEYQDEEGRGRVLELEGYMARVFQHEIDHLDGILFFERLPKPKREAFLEANRAELVRFQKEARALLKELSQG,soluble
2,MNGTRNWCTLVDVHPEDRAAGSVDILRLTLQGEPTGDELEHIAQKAGRKTYAMVSSHSAGHSLASELVESHDGHEEIIKVYLKGRSGDKMIHEKNINQLKSEVQYIQEARNCLQKLREDISSKLDRNLGDSLHRQEIQVVLEKPNGFSQSPTALYSSPPEVDTCINEDVESLRKTVQDLLAKLQEAKRQHQSDCVAFEVTLSRYQREAEQSNVALQREEDRVEQKEAEVGELQRRLLGMETEHQALLAKVREGEVALEELRSNNADCQAEREKAATLEKEVAGLREKIHHLDDMLKSQQRKVRQMIEQLQNSKAVIQSKDATIQELKEKIAYLEAENLEMHDRMEHLIEKQISHGNFSTQARAKTENPGSIRISKPPSPKPMPVIRVVET,soluble
3,METLLTQILDRLDQLHSSVGALTSDVNEMKNQLNKIEARAGSIEERVNSIEARVDSIESRVNNIEANMATKDELAELRSKVDDIEAKMATKDELAELRSTVNGLQSNVNEIQAKMATKEELAELRSKVNELQFKVNELQSNVNEIQAKMATKDDLVPIRQAVMEIDQIVKRIEVNQERHEHILAILSKRSIEHEASIASLRQAQ,not soluble
4,MAHHHHHHMNYDKLNLFKENFDMMYVIEEIETHLHEKKHLLCDINENILISEKNKTSIDIYEKHLIEKQIQILKKNKINYKKLNNINYVKYFLPLCIQPKTNNTDKCLSERDVYMKNFKKKNILRELHVKKRLTEYRINQFIEKYTGKFLKNNVLHKQISKIYNNKSKIEIFIKGDNFSYNRVIGDIAFFDSKPNVLLENVKYIVRKRKKKKLNNIKKNINI,not soluble
5,MNQPSYTSGRQDVALLATTVGDAFDATVARHAEREALVVRHQRLRYSWRQLAERVDAYARAFIALGLRPGERLGIWAPNCAEWCITQFASAKVGAVLVNINPAYRSSELEYALKQSGCSWLICADAFKTSDYHAMLGDLLPELARARPGELASERLPELRGVISLAERAPAGFLHWQGLPGLAAAVGAEELRQRQASLQFDEPINIQYTSGTTGFPKGATLSHYNILNNGYMVGESLGLGAEDRLVIPVPLYHCFGMVMGNLGCVTHGSTMIYPAPSFDAEATLLAVAEERATALYGVPTMFIAELDHPRRREFDLSSLRTGIMAGATCPIEVMRRVIGDMHMAEVQIAYGMTETSPVSLQTGPDDGLELRVTTVGRTQPRLESKIVDQTGRVVPRGEIGELCTRGYSVMLGYWNDPQATAEAIDPARWMHTGDLAVMDDDGYVRIVGRSKDMIIRGGENIYPRELEEFFFTHPAVADVQVIGIPDERYGEEIVAWIKLHPGHHADDEQLRAFCKARIAHFKIPRHFKFVDEFPMTVTGKIQKFRMREISIEEIRLLALRQGR,not soluble
6,MAHHHHHHMSWAALVKSIKPEEATNFTAKPRVTVFAVDPSQNDAERQLQNPQHETAEVKLPSFSKGLLILDANAIIKGMDNFVSTADALVTTPQVIAEIKDRASRELMERLPHKVTVLDPTPEAVAAVVACAERTGDFGAMSRTDIRLCALALECCKVGGFLGEPIEPRPPQVNPRNDDKVQVMTEEMGEDGSNDERAKSETAHAQGASSSAMPGWGDWSDEAKETDGEGGAGAAEEDDGEGEWITPENIQDVQSGTRGAGRAFEAGMACVTSDYAMQNTLMHLGVPIVGTNGIHIRELRLWMMRCTACFTLVVDTTRQFCPECGSGDTLRRVNYVVNDQGEKKLYINFRKRISTRGTIYNLPRPRGGTHGTNRNLVLREDQLAHVIRGTTSSKVKAHQVMQNDDGALATFGEAPKLKKKNLADPRAYSSYHRYNVNEKKKVRAAHRK,soluble
7,MSLTAIKHVAISCRRALTKCAKIGHTTVSVSRSLRKLSPTAFKTLRQAIAKVGHLNIMGQKIRLNDRELAANKVIMAVKKEEISKGILDPSQFTPGQHIFKTLAEVQKSPIFNLIKGMPKGGALHAHDTALCSTDYLISLTYRKNLWICTAEEGCKAIAFRFSKEEPKEKPVKESIWEPMEEFRERRGEENVTKYLTRRFSMYPFSKFISNNQAWAHFMGIFILLDGLLCHAPIWAEYYYNALKEFAEDGVQYLELRSLLPPLYCIDGDMLTIRDTVAIYNSELERFRADHPDFIGSKLIYAPLRGVEPSVVEQYVKTAVELNKEFPNFMVGFDLVGQEELGRPLIDFVEPLLKMPEHINFYFHAGETNWFGSPIDENLVDAILLGTKRIGHGYALTKHPMMMRLAKLLGIAIEVCPVSNQVLQLGVDYRNHPAALLLAANVPIVISSDDPSFWHCAPLSHDFYFAFLGIAPMKADLRFLKSLAINSIRYSALVGEEKRVGYRKWQEKWDKWIDDVVEHKYCEGHHHHHH,not soluble
8,MSLVLNFVGTGTLTRFFLECLKDRYEIGYILSRSIDRARNLAEVYGGKAATLEKHPELNGVVFVIVPDRYIKTVANHLNLGDAVLVHCSGFLSSEIFKKSGRASIHPNFSFSSLEKALEMKDQIVFGLEGDERGLPIVKKIAEEISGKYFVIPSEKKKAYHLAAVIASNFPVALAYLSKRIYTLLGLDEPELLIHTLMKGVADNIKKMRVECSLTGPVKRGDWQVVEEERREYEKIFGNTVLYDEIVKLLREVAESERREAQEDEREGGSHHHHHH,soluble
9,MGSDKIHHHHHHMKIALIATEKLPVPSVRGGAIQIYLEAVAPLIAKKHEVTVFSIKDPNLADREKVDGVHYVHLDEDRYEEAVGAELKKSRFDLVHVCNRPSWVPKLKKQAPDAVFILSVHNEMFAYDKISQAEGEICIDSVAQIVTVSDYIGQTITSRFPSARSKTKTVYSGVDLKTYHPRWTNEGQRAREEMRSELGLHGKKIVLFVGRLSKVKGPHILLQALPDIIEEHPDVMMVFIGSKWFGDNELNNYVKHLHTLGAMQKDHVTFIQFVKPKDIPRLYTMSDVFVCSSQWQEPLARVHYEAMAAGLPIITSNRGGNPEVIEEGKNGYIIHDFENPKQYAERINDLLSSSEKRERLGKYSRREAESNFGWQRVAENLLSVYEKNR,not soluble
10,MCIMCELKNFRRNITCFEGYDENSFIGKWYDDGVWDDEEYWKLENDLIEVRKKYPYPMDIPRYVVIGIGTIIDFLMVPNWKLFEIKASPWLPDSVGINERYERLKTMLRYIFTEKDIVNVQFDYYNKK,not soluble
11,MAKFNVENEHVEVEIEKLYKFSPELVYEAWTKKDLLKQWFMTSARTNKEIEADVKEGGKYRIVDQQRNGKVNVIEGIYESLVMDEYVKMTIGMPGLSETQDVIEVEFFERETGGTQMLFYYRSLVEKERRFTNLEYKQKKKEYHDAMVHGFELMFDKMYHVIETSTQQ,soluble
12,MLIRSETPADQRAIFDVTQAAFRGHPHSEQTEAYIVQALRAAGALTLSLVAELDARVVGHAAFSPVQISDGSPSWFGLGPVSVDPAHQGRGIGTALIEHGLARLQARGAAGCVLVGEPAYYGRFGFRPEPGLVLPDMPPTHFLALTFGAPARGTVTYHPGFAARDA,not soluble
13,MKFQWIGVLVFIGIVNCLISSQKLTVKENEERLKSCGNTFLPIPSINQTGKGFGFFNDKTYTYNSKSGWLLLAGHKNRSTRVYATAFPISEYHILISSRVMLTAEHKWIMNGKPFDKNNCSGGRHLDVPRDVLDNILFWYGKKPKKADISKARMFFACDNQDLKAYPVLIELNKTSKRPWAFNGVPCLADETTSSKLGDVVHFYGYSDYDLLHHKLLIKAVKDGGICTETYYTEEVGGPLVQNVSGKATVIGLKAPGSRENCELFYDLSKLQKEICDYSGVCGYEKPTLTTEPTPVTTEKSTVSTTISTSLETTIMQASSASPTSIKPSTTTEPSPLQASSKPATEPLLRPESTRRASSSASSKPEVQTTIPTEIRTSSLPTPFLKTSTTVTTTTPEPATVDYGDDHDMIGLDDEYGDESNKGVGKIDRIVGFFVLLLVIE,not soluble
14,MGSDKIHHHHHHMIKLSYLTSYITCPRLCYFRVHVGEKRFTELTAVREIYLSLKQGFDLDWAKKRAKALHGAFDEEAFRSAANKFIFPQIDCKSVEVDATIKSKSLGLLVSVDEIVECDGELLPLFLGLNPPENGVWFKDMVKAGAAALAGNYSKALIYYGYTGDLRPVEVTFSLKKKVIKLIERVKLIQRGFLPERKESRYCNYCSFSEDCKSRAETFASKFL,not soluble
15,MSLNVKIAALASHSALDVFDGAKDEGFQTIGLCKKGRERPYLEFKAIMDKCIILEDFKEIISDKVQSILLSENAIIVPNRSLAVYVGYDGIEKMKTKVFGNRYMLRWEERIGEKNYYKILNEAKISIPKLFKPEEIDRPVIVKLPEAKRKVERGFFFAVNKEDFEAKLNELLRNNVIDNEGLKNMVIEEFVFGAHFNLNYFYSPIFNRLELISVDRRIQSDWDSLYRLPADIQIKLGRIPKLIEVGHEPVTIRESLLEKVFEIGYRFVDATQKLEPPGIIGPFTLQVMVTPDLDLVVYDVAPRIGGGTNVYMGTGSQYSKFYFGKPISLGRRIALEIKHAIINNLTEKILTEGHHHHHH,soluble
16,MGSDKIHHHHHHMIFINSRFLTQDVSGVQRYAEQMCRALQRLRNDLIFVAPRNIRLHDCAKALDVQHIGHATGHLWEQVDLPLHLKRKGNPLLVSISNTGPMFYANQIATHHDINYVRYPQSYTRLFRLAYRTITPILLSRARTLITGSSFSRGEIASFYGYAEDKVLVLPAAVSDDFTPRAVHRDQPDYLLAVSSPAAHKNFNRMIQAFLSLRGHADLQLHIVGAASSLFADPNLQRLACRDPRIRFLGRLSDAELIEQYQGASAFVFPSLYEGFGIPPLEAQACGCPVLAANAASIPEVLQASALYFDPLDVSHMAAAMHRVLSDAPLRQALRRQGLKNVQRFSWEISAQRLSQRIDALLEPAVQGKHHVAPESSPGKP,not soluble
17,MVLLHHQPLGSHHATTSGGSLLERADLSHPIPENARKLAQLVEYDESRVELGTHSVFVREARPPGAHYSKATVIFLHGQSFSSSTWTENNLLRTFAALGYRAIAIDLPGSGQTRGAAIPQAEKPNFLMDFIETLGLKQVMIVCASMAAQYVLPLMTSTRHLSCVVLVAPSNTHEVVSPSSYTVPTLVVWGERDTSLGPTAAANLKNLPQVKLQKIPDAGHACYLHNPKCFENLCVNFFDLIRSYHH,not soluble
18,MSITDVLSADDIAAALQECRDPDTFEPQKFFQTSGLSKMSANQVKDVFRFIDNDQSGYLDEEELKFFLQKFESGARELTESETKSLMAAADNDGDGKIGAEEFQEMVHS,soluble
19,MEERILDRLAALDPDLMAYIRDFAYDTVYERPGLDLKTKELLASVLLVSLGSPDELKTHLRGALRAGATEQEVREALLLCVPYLGFPRTVAAFSQLQS,soluble
20,AKTAAALHILVKEEKLALDLLEQIKNGADFGKLAKKHSICPSGKRGGDLGEFRQGQMVPAFDKVVFSCPVLEPTGPLHTQFGYHIIKVLYRN,soluble
21,MVGNTFGRIFRVTTCGESYAGAFRKNLQIPKELFGGLIAIVDGVPPGIKLTADFVQEELDKRRPGKTPLDTPRKERDKVYIFSGVMEDDITTGAPVGMIIPNDVIEDEHINKHKSYKEVVRPGQAGYTFFKKYGQFADNIGAGRASGRETAARVAAGAVAKAVLDTMGIDVIAFVTEIHGIKAQENITYEMAKANYRKNEINCPDLEKAKEMIEELKRIKEEGDSVGGVVEIIARGVPAGLGEPVFDKLQATLAHALMSIGAIKGIEFGEGFGHTKLKGSESNDVPYYDEASGRVRFKTNRAGGILGGISNGEDIRIRVAVKPTPTISIPQKTVNMYTLENVEVEFNTRNDPSICPRIYPVCEAMVRIALLDALYIAKGYRAISSNIDPRWDRL,not soluble
22,MSAKTKFKSPAFEPIHSAASGLFSVDAIPQETMRSFDTACLSSIKDLQPLEIKALREKLNVSQPVFARYLNTSVSTVQKWESGAKRPSGMSLKLLNVVQKHGLKVLV,not soluble
